Source: the supplement of paper PMC6757056
± gives the standard deviation of the averaged measurements.

B1: library; a variant is named by its letters at N, in order (parent)
chain: GCUGUCACCGGUGCUUGGUACGUUAUAUUCAGCCGGUCUGAUGAGUCUNNNNNNAGACGAAACAGC

Tests used:
(6R,S)-folinic acid [1] = variants of: B1; assay: normalized RNA/DNA level without ligand (relative to sTRSVctl = 100) (log10 (% of sTRSVctl)); HEK293T overexpressing SLC46A1; higher = less ribozyme self-cleavage, higher mRNA level; conditions: without (6R,S)-folinic acid; ligand present: no
Method in brief: (§1)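 Ribozyme switch library plasmids linked to reporters were introduced into HEK293T cells at 4 µg per 6-well well, with ligand, if any, added 1 h before. Total RNA was extracted with EDTA 72 h later, reverse-transcribed, amplified, barcoded and sequenced. RNA level was computed from RNA over DNA reads relative to a spiked-in non-cleaving sequence or the top sequences, then scaled and log-transformed. The top set was 25 sequences, values were ×100 and log10, and the cutoff was ≥100 DNA reads.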

(6R,S)-folinic acid [2] = variants of: B1; assay: normalized RNA/DNA level with ligand (relative to sTRSVctl = 100) (log10 (% of sTRSVctl)); HEK293T overexpressing SLC46A1; ligand concentration (+) RNA-Seq: 6 mM; higher = less ribozyme self-cleavage, higher mRNA level; conditions: with (6R,S)-folinic acid; ligand present: yes
Method in brief: as §1

Variant | normalized RNA/DNA level without ligand (log10) ((6R,S)-folinic acid [1]) | normalized RNA/DNA level with ligand (log10) ((6R,S)-folinic acid [2])
AGUAAC | 2.003 ± 0.0042 | 2.01 ± 0.026
AGUAAG | 1.897 ± 0.0041 | 2.01 ± 0.057
AGUAAU | 1.99 ± 0.02 | 2 ± 0.026
GGGGUC | 2.023 ± 0.0058 | 2.04 ± 0.048
GGGGUG | 1.997 ± 0.011 | 2.061 ± 0.019
GGGGUA | 1.988 ± 0.0044 | 1.99 ± 0.028
GGGGUU | 2.014 ± 0.0056 | 2.02 ± 0.034
CGGUAG | 1.93 ± 0.025 | 1.963 ± 0.018
CGGUAU | 1.976 ± 0.0076 | 2.003 ± 0.013
CGGUAC | 2.0071 ± 0.0016 | 1.992 ± 0.0076
CGUCAA | 1.98 ± 0.022 | 1.974 ± 0.018
CGUCAC | 2.032 ± 0.0083 | 1.99 ± 0.049
CGUCAU | 2.01 ± 0.047 | 2 ± 0.021
CGUCAG | 2.001 ± 0.013 | 2.057 ± 0.013
UGGCGU | 1.99 ± 0.031 | 2.03 ± 0.05
AGUACC | 2.07 ± 0.0045 | 2.04 ± 0.044
AGUACA | 1.983 ± 0.0056 | 2 ± 0.038
AGUACU | 2.008 ± 0.0088 | 2.02 ± 0.043
CGUGAG | 1.97 ± 0.029 | 1.99 ± 0.028
CGUGAU | 1.96 ± 0.0081 | 1.993 ± 0.0086
UGUAGU | 1.903 ± 0.015 | 2.06 ± 0.059
UGUAGA | 1.84 ± 0.021 | 2.002 ± 0.017
UGUGCC | 2.023 ± 0.019 | 2.06 ± 0.029

Variant | normalized RNA/DNA level without ligand (log10) ((6R,S)-folinic acid [1]) | normalized RNA/DNA level with ligand (log10) ((6R,S)-folinic acid [2])
UGUGCA | 1.9059 ± 0.0006 | 1.99 ± 0.04
AGUCCG | 1.988 ± 0.0076 | 2 ± 0.025
AGUCCA | 2.022 ± 0.0089 | 2.0202 ± 0.002
AGUCCC | 2.019 ± 0.0039 | 2.046 ± 0.0072
AGUCCU | 2.048 ± 0.0074 | 2.05 ± 0.029
CGUAAG | 2.011 ± 0.0091 | 2.03 ± 0.018
CGUAAC | 1.98 ± 0.025 | 1.99 ± 0.043
CGGUGG | 1.93 ± 0.024 | 1.99 ± 0.026
CGGUGC | 2.053 ± 0.0063 | 2.007 ± 0.0042
CGGUGA | 2.029 ± 0.014 | 2.04 ± 0.043
UGUCAA | 1.968 ± 0.018 | 2.002 ± 0.014
UGUCAG | 1.771 ± 0.011 | 2 ± 0.026
UGUCAC | 2.03 ± 0.015 | 2.01 ± 0.021
UGUCAU | 1.955 ± 0.0075 | 2 ± 0.034
UGUAAC | 1.95 ± 0.034 | 1.99 ± 0.038
CGUACG | 2.018 ± 0.011 | 2.0285 ± 0.0013
CGUACC | 2.1 ± 0.0079 | 2.021 ± 0.016
CGUACU | 2.0544 ± 0.00062 | 2.043 ± 0.0063
CGUACA | 2.01 ± 0.0077 | 2.041 ± 0.02
CGGGGU | 2.039 ± 0.015 | 2.07 ± 0.024
CGGGGG | 1.91 ± 0.034 | 2.05 ± 0.064
CGGGGA | 2.104 ± 0.0034 | 2.11 ± 0.065
CGGGGC | 2.03 ± 0.023 | 2.003 ± 0.014

Variant | normalized RNA/DNA level without ligand (log10) ((6R,S)-folinic acid [1]) | normalized RNA/DNA level with ligand (log10) ((6R,S)-folinic acid [2])
GGUGCG | 2.0178 ± 0.0012 | 2.05 ± 0.035
GGUGCC | 2.029 ± 0.0081 | 2.03 ± 0.039
UGUGGC | 1.97 ± 0.022 | 2.019 ± 0.0063
CGGCUA | 2.11 ± 0.027 | 2.067 ± 0.011
CGGCUG | 2.0746 ± 0.002 | 2.04 ± 0.027
CGGCUU | 2.04 ± 0.04 | 2.02 ± 0.022
GGUAUU | 2.002 ± 0.014 | 1.98 ± 0.032
GGUAUC | 2.011 ± 0.008 | 2.0104 ± 0.001
AGUGAG | 1.767 ± 0.0046 | 1.96 ± 0.028
AGUGAA | 1.933 ± 0.0071 | 1.99 ± 0.033
AGUGAC | 2.006 ± 0.0076 | 1.99 ± 0.04
AGGCUG | 2.0598 ± 0.0012 | 2.04 ± 0.0063
AGGCUU | 2.03 ± 0.027 | 2.04 ± 0.041
AGUCGC | 2.012 ± 0.015 | 1.98 ± 0.031
AGUCGG | 1.938 ± 0.0053 | 2 ± 0.053
AGUCAC | 2.02 ± 0.024 | 2.02 ± 0.026
AGUCAU | 1.998 ± 0.0079 | 2.0062 ± 1.5e-05
AGUCAG | 1.975 ± 0.016 | 2.02 ± 0.042
UGGUGC | 2.02 ± 0.03 | 2.02 ± 0.044
GGGGAC | 1.995 ± 0.013 | 2.029 ± 0.012
GGGGAG | 1.9915 ± 0.00084 | 2.04 ± 0.043
GGGGAU | 2.002 ± 0.0074 | 2.03 ± 0.05
CGUCCG | 2.04 ± 0.026 | 2.037 ± 0.015

Variant | normalized RNA/DNA level without ligand (log10) ((6R,S)-folinic acid [1]) | normalized RNA/DNA level with ligand (log10) ((6R,S)-folinic acid [2])
CGUCCC | 2.003 ± 0.0083 | 1.95 ± 0.037
CGUCCU | 2.11 ± 0.011 | 2.06 ± 0.031
CGUCCA | 2.0366 ± 0.0014 | 2.02 ± 0.035
AGGUCU | 2.043 ± 0.0045 | 2 ± 0.021
AGGUCA | 1.967 ± 0.014 | 2.01 ± 0.047
AGGUCG | 1.985 ± 0.013 | 2.05 ± 0.043
GGUACU | 2.063 ± 0.0044 | 2.04 ± 0.022
GGUACG | 2.025 ± 0.017 | 2.04 ± 0.049
GGUACC | 2.067 ± 0.015 | 2.03 ± 0.04
CGUCUG | 2.008 ± 0.01 | 2.01 ± 0.018
CGUCUU | 2.021 ± 0.0084 | 2 ± 0.039
UGUAUA | 1.953 ± 0.0013 | 2.01 ± 0.022
GGGUUA | 2.052 ± 0.0032 | 2.034 ± 0.01
GGGUUC | 2.027 ± 0.006 | 2.001 ± 0.0053
GGGUUU | 2.029 ± 0.015 | 2.04 ± 0.036
UGGGAC | 1.99 ± 0.03 | 2.015 ± 0.0073
UGGGAA | 1.8778 ± 0.0006 | 1.98 ± 0.028
GGUCUA | 2.01 ± 0.021 | 2.03 ± 0.029
GGUCUG | 2.081 ± 0.0057 | 2.06 ± 0.061
GGUCUU | 2.02 ± 0.027 | 2.01 ± 0.032
GGUCUC | 2.0526 ± 0.0017 | 2.06 ± 0.026
AGGGAA | 1.965 ± 0.0039 | 2.01 ± 0.025
AGGGAU | 1.949 ± 0.0057 | 1.98 ± 0.031

Variant | normalized RNA/DNA level without ligand (log10) ((6R,S)-folinic acid [1]) | normalized RNA/DNA level with ligand (log10) ((6R,S)-folinic acid [2])
GGUCCC | 2.043 ± 0.016 | 2.01 ± 0.027
GGUCCU | 2.09 ± 0.0075 | 2.09 ± 0.062
GGUCCG | 2.04 ± 0.018 | 2.03 ± 0.03
UGGGGG | 1.8 ± 0.017 | 2.008 ± 0.018
UGGGGA | 1.836 ± 0.0073 | 1.99 ± 0.036
UGGGGC | 2.024 ± 0.01 | 2.02 ± 0.023
UGGGGU | 1.94 ± 0.026 | 2.0251 ± 0.00068
AGGGUA | 1.968 ± 0.019 | 2.02 ± 0.0085
AGGGUC | 2.051 ± 0.0057 | 2.03 ± 0.063
AGGGUU | 2.021 ± 0.0045 | 2.01 ± 0.035
AGGGUG | 1.952 ± 0.0024 | 2.04 ± 0.028
AGGGGG | 1.9815 ± 0.00032 | 2.05 ± 0.064
AGGGGU | 1.98 ± 0.025 | 2.02 ± 0.039
AGGGGA | 2.001 ± 0.0065 | 2.04 ± 0.058
AGGGGC | 2.047 ± 0.0056 | 2.04 ± 0.053
GGGUGG | 2.056 ± 0.0092 | 2.04 ± 0.043
GGGUGU | 2.025 ± 0.011 | 2.06 ± 0.049
AGUGGG | 1.921 ± 0.019 | 2.04 ± 0.035
AGUGGU | 1.95 ± 0.013 | 2.02 ± 0.049
AGUGGC | 2.042 ± 0.01 | 2.04 ± 0.06
UGGUUU | 1.95 ± 0.021 | 1.97 ± 0.026
UGGUUC | 2.01 ± 0.011 | 2.01 ± 0.081
UGGUUA | 1.945 ± 0.013 | 2.01 ± 0.071
